The data set concerns the molecule itself. As to the kind of experiment: crystal structure.

B1: human HisRS Δ507–509 (domain or fragment, UniProt P12081 1-506, looked up)
chain: MAERAALEELVKLQGERVRGLKQQKASAELIEEEVAKLLKLKAQLGPDESKQKFVLKTPKGTRDYSPRQMAVREKVFDVIIRCFKRHGAEVIDTPVFELKETLMGKYGEDSKLIYDLKDQGGELLSLRYDLTVPFARYLAMNKLTNIKRYHIAKVYRRDNPAMTRGRYREFYQCDFDIAGNFDPMIPDAECLKIMCEILSSLQIGDFLVKVNDRRILDGMFAICGVSDSKFRTICSSVDKLDKVSWEEVKNEMVGEKGLAPEVADRIGDYVQQHGGVSLVEQLLQDPKLSQNKQALEGLGDLKLLFEYLTLFGIDDKISFDLSLARGLDYYTGVIYEAVLLQTPAQAGEEPLGVGSVAAGGRYDGLVGMFDPKGRKVPCVGLSIGVERIFSIVEQRLEALEEKIRTTETQVLVASAQKKLLEERLKLVSELWDAGIKAELLYKKNPKLLNQLQYCEEAGIPLVAIIGEQELKDGVIKLRSVTSREEVDVRREDLVEEIKRRTGQPL
Take B1: the binding result is recorded as “binds”.

B2: human HisRS Δ1–53_507–509 (domain or fragment, UniProt P12081 54-506, looked up)
chain: FVLKTPKGTRDYSPRQMAVREKVFDVIIRCFKRHGAEVIDTPVFELKETLMGKYGEDSKLIYDLKDQGGELLSLRYDLTVPFARYLAMNKLTNIKRYHIAKVYRRDNPAMTRGRYREFYQCDFDIAGNFDPMIPDAECLKIMCEILSSLQIGDFLVKVNDRRILDGMFAICGVSDSKFRTICSSVDKLDKVSWEEVKNEMVGEKGLAPEVADRIGDYVQQHGGVSLVEQLLQDPKLSQNKQALEGLGDLKLLFEYLTLFGIDDKISFDLSLARGLDYYTGVIYEAVLLQTPAQAGEEPLGVGSVAAGGRYDGLVGMFDPKGRKVPCVGLSIGVERIFSIVEQRLEALEEKIRTTETQVLVASAQKKLLEERLKLVSELWDAGIKAELLYKKNPKLLNQLQYCEEAGIPLVAIIGEQELKDGVIKLRSVTSREEVDVRREDLVEEIKRRTGQPL
Usually stoichiometry N stands for a count of units in the complex or per binding partner. Turning to B2, the “stoichiometry N” value is 2.

The values are drawn from paper PMC3485694 (Structure (London, England : 1993), 2012).
